Measured values: patent US20100285526

Key:
[1] = test system: GST-IL11(A) fusion protein [GST: P08515]
His-IL11 fusion protein = test system: T1, His-IL11 fusion protein
T1 sequence: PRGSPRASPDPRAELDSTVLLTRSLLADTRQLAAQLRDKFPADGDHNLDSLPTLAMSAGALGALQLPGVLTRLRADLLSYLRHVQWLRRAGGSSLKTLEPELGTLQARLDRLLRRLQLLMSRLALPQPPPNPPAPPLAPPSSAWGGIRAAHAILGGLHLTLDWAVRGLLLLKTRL

[2] = test system: GST-IL6 fusion protein [GST: P08515]
[3] = test system: GST-Thymosin β4 fusion protein [GST: P08515]
[4] = test system: GST-IL11(LV-) fusion protein [GST: P08515]
[5] = test system: MBP-IL11 fusion protein [MBP: P0AEX9]

Row | Substance | thrombin cleavage of the fusion protein, SDS-PAGE time course [1] | thrombin cleavage of the fusion protein, SDS-PAGE time course (His-IL11 fusion protein) | thrombin cleavage of the fusion protein, SDS-PAGE time course [2] | integrity of released thymosin β4, MALDI-TOF/MS [3] | thrombin cleavage of the fusion protein, SDS-PAGE time course [3] | thrombin cleavage of the fusion protein, SDS-PAGE time course [4] | choice of cleavage site within the linker [1] | integrity of released IL-11, MALDI-TOF/MS [1] | thrombin cleavage of the fusion protein, SDS-PAGE time course [5]
1 | bovine thrombin | The GST fusion partner was efficiently cleaved by both bovine and human thrombin in the concentration ranges and the time points tested |  |  |  |  |  |  |  | 
2 | human thrombin | The GST fusion partner was efficiently cleaved by both bovine and human thrombin in the concentration ranges and the time points tested |  |  |  |  |  |  |  | 
3 | thrombin (species not stated) |  | The fusion protein His-IL11 (22 kDa) gradually disappeared, and the amount of IL11 (18 kDa) increased as reaction time passed | The fusion protein GST-IL6 (46 kDa) gradually disappeared, and the amount of IL-6 (22 kDa) increased as reaction time passed | it was confirmed that intact thymosin β4 protein was generated after thrombin cleavage of GST-Thymosin β4 | The fusion protein GST-Thymosin β4 (31 kDa) gradually disappeared, and the amount of thymosin β4 (5 kDa) increased as reaction time passed | The fusion protein GST-IL11(LV-) (44 kDa) gradually disappeared, and the amount of IL-11(LV-) (18 kDa) increased as reaction time passed | thrombin cleavage occurs not at Arg↓Gly but at Arg↓Ala | it was confirmed that intact IL-11 protein was generated after thrombin cleavage of GST-IL11(A) | The fusion protein MBP-IL11 (60 kDa) gradually disappeared, and the amount of IL11 (18 kDa) increased as reaction time passed
